Measured values as given in US8962819B2, “Anti-C5 alpha antibodies” (Adienne S.A., priority 2002, dated 2015).
“Also recorded” adds a separate entry of the source.

Experiments:
rat joint = experiment: Rat model of antigen-induced (BSA) arthritis, intra-articular scFv; assay type: in vivo
Description: Polymorphonuclear Leukocytes (PMN), isolated from intra-articular wash out of rats with arthritis induced by instillation of BSA (mBSA), were incubated with antibody TS-A12/22 or with an unrelated antibody, as described in example 10.
Saline solution: control without induced arthritis; mBSA: BSA-induced arthritis, untreated; unrelated: BSA-induced arthritis, treated with unrelated scFv antibody; Ts-a12/22: BSA-induced arthritis, treated with the antibody of the invention.
Histological sections of joints from rats treated with intra-articular injection of saline (A), BSA (B), BSA with TS-A12/22 (C) and BSA with the unrelated antibody (D) were analysed by immunofluorescence for the presence of complement components C3 and C9, as described in example 10.
In order to test the effect of the TS-A12/22 antibody in vivo, the influx of PMN was measured in the rat joint injected with BSA, BSA and TS-A12/22 or BSA and unrelated antibody. […] Moreover the deposition of the C3 and C9 complement components was checked on a histological section of the joint of the back paw of treated rats, by immunofluorescence with specific antisera and fluorescein-conjugated secondary antibody (FIG. 7). […] It was thus confirmed that the TS-A12/22 antibody inhibits the complement cascade at a step intermediate between C3 and C9 and therefore at the level of the conversion of C5 to C5a+C5b.

C5 beta chain = target: T1, C5 beta chain (Homo sapiens, UniProt P01031); experiment: Immunoblotting on separated C5 chains; assay type: binding; settings: 100 ng chain, FIG. 2 lane 2
T1 construct: Lane 1: 100 ng of C5 alpha chain; lane 2: 100 ng of beta chain; purchased Quidel
T1 sequence (P01031 19-673 limits assumed): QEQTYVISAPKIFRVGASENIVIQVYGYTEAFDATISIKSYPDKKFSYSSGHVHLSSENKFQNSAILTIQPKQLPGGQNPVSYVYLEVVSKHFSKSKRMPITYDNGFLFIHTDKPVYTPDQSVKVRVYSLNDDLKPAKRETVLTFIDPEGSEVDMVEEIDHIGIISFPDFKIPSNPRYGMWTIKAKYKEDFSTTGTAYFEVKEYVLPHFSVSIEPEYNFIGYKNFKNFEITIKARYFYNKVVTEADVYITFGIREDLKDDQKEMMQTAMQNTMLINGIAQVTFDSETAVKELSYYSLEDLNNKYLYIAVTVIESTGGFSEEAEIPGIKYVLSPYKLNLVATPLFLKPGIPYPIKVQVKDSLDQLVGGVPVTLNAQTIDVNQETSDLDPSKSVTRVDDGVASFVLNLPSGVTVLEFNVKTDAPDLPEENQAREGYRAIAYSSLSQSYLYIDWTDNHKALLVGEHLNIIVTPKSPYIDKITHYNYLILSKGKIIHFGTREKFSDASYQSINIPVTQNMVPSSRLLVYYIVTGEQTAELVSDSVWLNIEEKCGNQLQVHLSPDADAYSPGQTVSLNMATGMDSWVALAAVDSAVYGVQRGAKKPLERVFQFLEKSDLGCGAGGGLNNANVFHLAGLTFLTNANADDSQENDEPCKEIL
Description: (§1) The alpha and beta chains of C5 were electrophoretically separated by means of SDS-PAGE in 10% polyacrylamide and then transferred onto nitrocellulose. […] Lane 1: 100 ng of C5 alpha chain; lane 2: 100 ng of beta chain; lane 3: mixture of the two chains. […] It can be seen that scFv TSA-12/22 recognises the alpha chain of C5 in lane 1, but not the beta chain in lane 2.
(§2) Purified proteins. Purified components C4 to C9 were purchased from Quidel (Saint Diego, Calif.) and the human recombinant C5a component was purchased from SIGMA-ALDRICH® S.r.1. (Milan, Italy). C5 alpha and beta subunits were obtained by incubating 50 μg of C5 diluted in 0.55 M TRIS-HCl pH 8.1 containing DTT (0.02 M) for 30 min at room temperature (RT), followed by treatment with iodoacetamide (0.12 M) for 1 hour at RT. Alpha and beta chains were purified by gel filtration on Superose 12 (Pharmacia Biotech, Milan, Italy) in Fast Protein Liquid Chromatography (FPLC) and purity was assessed by SDS-PAGE in non-reducing conditions.
(§3) It was first characterised, by means of the Western-blotting technique, whether the TS-A12/22 antibody recognises the alpha or beta of subunit of the C5 complement component prepared as described in Materials. Briefly the two subunits were electrophoresed in separate wells and transferred on nitrocellulose membranes. A solution containing Tris 50 mM pH 7.6, 0.5 M NaCl and 4% skimmed powder milk was used to block non-specific sites for 1 hour at 37° C. […] The enzymatic reaction was developed with blue tetrazolium and 5-bromo-4-chlorine-3-indolil phosphate (SIGMA-ALDRICH®, 0.30 mg/ml) diluted in 0.1 M Tris-HCl pH 9.5 containing 0.1 M NaCl and 5 mM MgCl2. Rainbow RPN 756 ([…]™ Italy (a trademark of General Electric Healthcare Limited)) were used as molecular weight markers.

C5 alpha chain = target: T2, C5 alpha chain (Homo sapiens, UniProt P01031); experiment: Immunoblotting on separated C5 chains; assay type: binding; settings: 100 ng chain, FIG. 2 lane 1
T2 construct: Lane 1: 100 ng of C5 alpha chain; lane 2: 100 ng of beta chain; purchased Quidel
Description: as §1, §2, §3

C4 = experiment: Specificity on other complement components; assay type: binding
Description: (§4) (The specificity of TS-A12/22 antibody was evaluated also on other components of the complement cascade, as for instance C3 and C4, which are structurally similar to C5, but cross-reactivity was not found).

C3 = C3 (Homo sapiens, UniProt P01024); experiment: Specificity on other complement components; assay type: binding
Description: as §4

Sequence of C3 (P01024 23-1663): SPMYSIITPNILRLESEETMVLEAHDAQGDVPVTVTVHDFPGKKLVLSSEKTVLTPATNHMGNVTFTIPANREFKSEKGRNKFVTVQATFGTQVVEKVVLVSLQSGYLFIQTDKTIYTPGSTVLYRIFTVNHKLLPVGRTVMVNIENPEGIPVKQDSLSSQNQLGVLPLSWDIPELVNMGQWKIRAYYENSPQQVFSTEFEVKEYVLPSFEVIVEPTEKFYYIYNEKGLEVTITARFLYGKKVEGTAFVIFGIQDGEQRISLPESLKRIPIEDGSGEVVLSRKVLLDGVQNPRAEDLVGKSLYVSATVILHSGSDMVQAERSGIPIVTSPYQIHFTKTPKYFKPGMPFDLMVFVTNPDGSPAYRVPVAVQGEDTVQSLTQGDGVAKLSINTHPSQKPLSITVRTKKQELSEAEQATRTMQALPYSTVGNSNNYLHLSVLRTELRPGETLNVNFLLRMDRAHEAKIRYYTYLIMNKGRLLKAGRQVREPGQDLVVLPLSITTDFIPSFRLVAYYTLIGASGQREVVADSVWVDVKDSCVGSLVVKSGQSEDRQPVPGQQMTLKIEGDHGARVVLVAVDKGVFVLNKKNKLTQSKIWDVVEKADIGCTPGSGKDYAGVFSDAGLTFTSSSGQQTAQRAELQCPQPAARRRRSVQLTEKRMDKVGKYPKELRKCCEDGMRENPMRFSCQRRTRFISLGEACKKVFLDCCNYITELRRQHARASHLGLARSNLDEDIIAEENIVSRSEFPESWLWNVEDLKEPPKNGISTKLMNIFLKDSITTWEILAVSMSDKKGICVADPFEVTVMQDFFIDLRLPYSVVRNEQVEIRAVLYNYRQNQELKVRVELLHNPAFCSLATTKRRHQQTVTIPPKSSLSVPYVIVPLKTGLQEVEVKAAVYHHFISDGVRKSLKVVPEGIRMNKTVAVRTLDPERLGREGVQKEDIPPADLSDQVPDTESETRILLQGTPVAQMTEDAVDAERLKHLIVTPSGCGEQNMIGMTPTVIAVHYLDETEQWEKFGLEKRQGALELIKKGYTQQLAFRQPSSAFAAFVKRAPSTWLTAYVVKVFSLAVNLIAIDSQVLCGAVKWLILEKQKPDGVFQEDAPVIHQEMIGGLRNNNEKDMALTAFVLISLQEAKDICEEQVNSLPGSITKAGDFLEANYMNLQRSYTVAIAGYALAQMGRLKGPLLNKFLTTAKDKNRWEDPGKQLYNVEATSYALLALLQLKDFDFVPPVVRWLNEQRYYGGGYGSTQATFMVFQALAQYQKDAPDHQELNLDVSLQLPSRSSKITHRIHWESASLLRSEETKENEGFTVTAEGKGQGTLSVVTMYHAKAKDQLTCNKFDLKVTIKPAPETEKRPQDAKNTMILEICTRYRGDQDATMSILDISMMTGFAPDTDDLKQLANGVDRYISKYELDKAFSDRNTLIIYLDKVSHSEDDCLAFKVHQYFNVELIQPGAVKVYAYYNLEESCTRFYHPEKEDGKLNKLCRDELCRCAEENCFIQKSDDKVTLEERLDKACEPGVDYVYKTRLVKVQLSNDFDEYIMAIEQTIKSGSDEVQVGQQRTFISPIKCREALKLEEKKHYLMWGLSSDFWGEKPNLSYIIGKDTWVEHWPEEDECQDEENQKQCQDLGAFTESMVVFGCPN
T2 sequence (P01031 678-1676 limits assumed): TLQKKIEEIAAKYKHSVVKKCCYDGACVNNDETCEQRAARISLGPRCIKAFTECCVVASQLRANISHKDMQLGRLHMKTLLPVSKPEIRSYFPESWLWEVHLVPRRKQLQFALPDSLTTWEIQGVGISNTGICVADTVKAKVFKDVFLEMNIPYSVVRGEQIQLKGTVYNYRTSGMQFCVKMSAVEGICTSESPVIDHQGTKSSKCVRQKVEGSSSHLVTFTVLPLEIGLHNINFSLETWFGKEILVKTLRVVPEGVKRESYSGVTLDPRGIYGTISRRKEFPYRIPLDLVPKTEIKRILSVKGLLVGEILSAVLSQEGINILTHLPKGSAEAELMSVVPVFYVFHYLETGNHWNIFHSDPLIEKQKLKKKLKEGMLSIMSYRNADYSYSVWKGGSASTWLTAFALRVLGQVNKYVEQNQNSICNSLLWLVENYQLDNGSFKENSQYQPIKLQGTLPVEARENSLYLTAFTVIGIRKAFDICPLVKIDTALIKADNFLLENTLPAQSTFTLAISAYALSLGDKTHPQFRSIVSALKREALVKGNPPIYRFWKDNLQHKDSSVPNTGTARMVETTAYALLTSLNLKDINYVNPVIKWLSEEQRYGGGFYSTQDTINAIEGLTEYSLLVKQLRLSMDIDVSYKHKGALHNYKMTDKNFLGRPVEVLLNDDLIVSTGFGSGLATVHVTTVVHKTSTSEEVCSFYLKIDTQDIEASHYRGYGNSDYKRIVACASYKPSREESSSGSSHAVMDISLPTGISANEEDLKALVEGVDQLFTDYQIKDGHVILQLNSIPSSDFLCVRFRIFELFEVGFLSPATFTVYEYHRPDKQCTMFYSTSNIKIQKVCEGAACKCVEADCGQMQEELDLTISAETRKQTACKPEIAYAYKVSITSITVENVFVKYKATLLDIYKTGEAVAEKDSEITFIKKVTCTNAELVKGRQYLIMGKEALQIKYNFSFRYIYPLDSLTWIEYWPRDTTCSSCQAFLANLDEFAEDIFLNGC

B1: TS-A12/22: anti-C5 scFv obtained from TS-A12 by VL chain shuffling; VH3/V-48 and Vλ3/V2-14; amino acid sequence SEQ ID NO:6 (protein, listed as Homo sapiens)
scFv: DIRMTQSPDSLAVSLGERATINCKSSQSVLYSSNNKNYLAWYQQKPGQPPKLLIYWASTRESGVPDRFSGSGSGTDFTLTISSLQAEDVAVYYCQQYYSTPQLTFGGRTKVDIKSGGSTITSYNVYYTKLSSSGTQVQLQQSEGGVVQPGRSLRLSCAASGFTFSSYGMNWVRQAPGKGLEWVSYISSSSSTIYYADSVKGRFTISRDNSKNTLYLQMNSLRAEDTAVYYCARGPGMDVWGQGTTVTVSS
In the case of B1, the “deposition of C3 in the joint (immunofluorescence)” value (rat joint; FIG. 7) is reported as “remained unchanged; also recorded: does not affect”, the “deposition of C9 in the joint (immunofluorescence)” value (rat joint; FIG. 7) is reported as “strongly inhibited; also recorded: significantly reduces” and the “number of PMN in the joint wash out liquid” value (rat joint; versus BSA or BSA and unrelated antibody, FIG. 6) is reported as “significantly reduced; also recorded: drastically reduced”. For the same molecule, the “recognition of C5 beta sub-unit” value (C5 beta chain) was “does not recognise”, the “recognition of C5 beta sub-unit” value (C5 beta chain; listed as TSA-12/22) was “not” and the “recognition of C5 alpha sub-unit” value (C5 alpha chain) was “recognises”. The “cross-reactivity with C4” value (C4) was “not found” and the “cross-reactivity with C3” value (C3) was “not found”.
